Source: the Immune Epitope Database (IEDB)

Experiments:
[1] = target: HLA-A*31:01; assay: IEDB peptide-MHC binding, purified MHC/direct/fluorescence; filed as Kd, often an IC50 or EC50 that approximates it; ≥ and ≤ were set here for values at or beyond the usual limits of such assays
[2] = target: HLA-A*03:01; assay: as above
[3] = target: HLA-A*02:01; assay: IEDB peptide-MHC binding, purified MHC/competitive/fluorescence; ≥ and ≤ were set here for values at or beyond the usual limits of such assays
[4] = target: HLA-A*01:01; assay: IEDB peptide-MHC binding, purified MHC/competitive/radioactivity; filed as Kd, often an IC50 or EC50 that approximates it; ≥ and ≤ were set here for values at or beyond the usual limits of such assays
[5] = target: HLA-B*27:05; assay: IEDB peptide-MHC binding, purified MHC/direct/fluorescence; filed as Kd, often an IC50 or EC50 that approximates it; ≥ and ≤ were set here for values at or beyond the usual limits of such assays; conditions: source organism: Homo sapiens
[6] = target: HLA-A*69:01; assay: as above
[7] = target: HLA-A*30:01; assay: IEDB peptide-MHC binding, purified MHC/competitive/radioactivity; filed as Kd, often an IC50 or EC50 that approximates it; ≥ and ≤ were set here for values at or beyond the usual limits of such assays
[8] = target: HLA-A*11:01; assay: as above
[9] = target: HLA-A*03:01; assay: as above
[10] = target: HLA-A*02:01; assay: IEDB peptide-MHC binding, purified MHC/direct/fluorescence; filed as Kd, often an IC50 or EC50 that approximates it; ≥ and ≤ were set here for values at or beyond the usual limits of such assays
[11] = target: HLA-B*07:02; assay: as above
[12] = target: HLA-B*40:01; assay: as above
[13] = target: HLA-B*15:01; assay: as above
[14] = target: HLA-A*33:01; assay: IEDB peptide-MHC binding, purified MHC/competitive/radioactivity; filed as Kd, often an IC50 or EC50 that approximates it; ≥ and ≤ were set here for values at or beyond the usual limits of such assays; conditions: source organism: Vaccinia virus WR
[15] = target: HLA-A*31:01; assay: as above; conditions: source organism: Vaccinia virus WR
[16] = target: HLA-A*68:01; assay: as above; conditions: source organism: Vaccinia virus WR
[17] = target: HLA-B*58:01; assay: IEDB peptide-MHC binding, purified MHC/direct/fluorescence; filed as Kd, often an IC50 or EC50 that approximates it; ≥ and ≤ were set here for values at or beyond the usual limits of such assays; conditions: source organism: SARS-CoV1
[18] = target: HLA-A*11:01; assay: as above
[19] = target: HLA-A*30:02; assay: IEDB peptide-MHC binding, purified MHC/competitive/radioactivity; filed as Kd, often an IC50 or EC50 that approximates it; ≥ and ≤ were set here for values at or beyond the usual limits of such assays
[20] = target: HLA-A*23:01; assay: as above
[21] = target: HLA-A*26:01; assay: as above
[22] = target: HLA-A*02:02; assay: as above; conditions: source organism: Vaccinia virus WR
[23] = target: HLA-A*02:03; assay: as above; conditions: source organism: Vaccinia virus WR
[24] = target: HLA-A*02:06; assay: as above; conditions: source organism: Vaccinia virus WR
[25] = source organism: Escherichia coli
[26] = source organism: Sudan ebolavirus
[27] = source organism: Dengue virus 3 Martinique/1243/1999
[28] = source organism: Dengue virus 4 Philippines/H241/1956
[29] = source organism: Dengue virus 2 Jamaica/1409/1983
[30] = source organism: Escherichia coli O157:H7
[31] = source organism: Zaire ebolavirus
[32] = source organism: Vaccinia virus Copenhagen
[33] = source organism: Pseudomonas aeruginosa
[34] = source organism: Mycobacterium tuberculosis
[35] = source organism: Vaccinia virus WR
[36] = source organism: Vaccinia virus
[37] = source organism: Dengue virus 1 Brazil/97-11/1997
[38] = source organism: Entamoeba histolytica HM-1:IMSS
[39] = source organism: Vibrio cholerae

Sequence RRNNRVFFR has a Kd [1, 25] of 17.7 nM and a Kd [2, 25] of at least 20 µM.

For LTTPENITT, the IC50 [3, 26] was at least 157 µM.

ITDFAGKTV showed a Kd [4, 27] of at least 20.3 µM.

With AHSTIMPRL the Kd [5] was 8.62 µM and the Kd ([6]; source organism: Homo sapiens) was 832 nM.

Sequence RNRVSTPQG has a Kd [7, 28] of 132 nM.

For RSTPFNMLK, the Kd [8, 29] was 14.1 nM, the Kd [9, 29] was 8.05 nM and the Kd [7, 29] was 20.4 nM.

VLFIHPLDA was tested, and the Kd [10, 30] was 64.9 nM and the Kd [6, 30] was at least 20000 nM.

Work on KRLEELLPA yielded an IC50 [3, 31] of at least 683 µM.

With HAKSQCRPS the Kd [7, 32] was 854 nM.

TLKDAMLQL gave a Kd ([10]; source organism: Mammarenavirus lassaense) of 116 nM.

With FPEHIFPAL the Kd ([11]; source organism: Mus musculus) was 937 nM, the Kd ([12]; source organism: Mus musculus) was 278 nM and the Kd ([6]; source organism: Mus musculus) was 2330 nM.

With LQKVPHTRY the Kd [13, 33] was 476 nM and the Kd [1, 33] was 17200 nM.

For TLLQAAPTL, the IC50 [3, 34] was 0.05 µM.

For KSKSRRLNL, the Kd [7, 35] was 12.6 nM.

Sequence IMAILCVPNA has a Kd [7, 29] of 45 nM.

Sequence TGPCPGDYA has an IC50 [3, 26] of 34.9 µM.

GLYKSINVE was tested, and the IC50 [3, 35] was 39.5 µM.

In the case of ASKSLKPTK, the Kd [7, 35] is reported as 15.1 nM.

With KTSHAKVLV the Kd [7, 35] was 70.9 nM.

For TNLEYKTLC, the IC50 [3, 36] was at least 773 µM.

RVLFSIFYK gave a Kd [8, 35] of 53.2 nM, a Kd [14] of 1860 nM and a Kd [15] of 0.861 nM. For the same sequence, the Kd [9, 35] was 5.35 nM, the Kd [7, 35] was 118 nM and the Kd [16] was 120 nM.

IITASILLWY showed a Kd [4, 29] of 0.0932 µM.

Work on LSLLQLPRD yielded an IC50 [3, 26] of at least 173 µM.

Work on LNASQYANC yielded an IC50 [3, 32] of at least 1400 µM.

Work on RSQGPFDAV yielded an IC50 [3, 31] of at least 163 µM.

Sequence KHKIFSPFK has a Kd [7, 35] of 0.886 nM.

Work on ASHFISNSW yielded a Kd [17] of 72 nM, a Kd ([18]; source organism: SARS-CoV1) of at least 53 µM and a Kd ([13]; source organism: SARS-CoV1) of 11400 nM.

Sequence TEQAFYTRV has an IC50 [3, 35] of at least 98.4 µM.

LAGVSLLPVC gave a Kd [7, 27] of 15900 nM.

For VVLTGGTGV, the IC50 ([3]; source organism: Variola virus) was 3.8 µM.

Work on YSDRRWCFD yielded a Kd [4, 37] of 1.07 µM.

Sequence AKQPATLRKY has a Kd [19, 29] of 5240 nM.

With EEALKGLPIR the Kd [7, 27] was 609 nM.

For LTLKPCHAL, the Kd ([18]; source organism: Brucella suis) was 18 µM, the Kd ([11]; source organism: Brucella suis) was 1960 nM and the Kd ([10]; source organism: Brucella suis) was 4760 nM. It also gave a Kd ([6]; source organism: Brucella suis) of 546 nM.

KYWRQMIIK showed a Kd [1, 38] of 24.9 nM and a Kd [2, 38] of at least 20 µM.

Work on SSTNQLRSV yielded an IC50 [3, 31] of 48.2 µM.

With FMSNGEHVP the IC50 [3, 35] was 57.6 µM.

With LSEKEENMV the Kd [4, 28] was 6.47 µM.

DLCGSVFLV showed an IC50 ([3]; source organism: Hepatitis C virus genotype 1) of 5 µM.

NSLEVEDYGF was tested, and the Kd [20, 29] was 5.43 µM.

WTEQYKFQA gave a Kd [4, 37] of at least 20.2 µM.

In the case of ASTVIYRGT, the IC50 [3, 31] is reported as at least 222 µM.

GVVTRSGAY was tested, and the Kd [19, 29] was 9.28 nM and the Kd [21, 29] was 836 nM.

With GEGGVGSIL the Kd [12, 34] was 33 nM.

With KVKKKYAIG the Kd [7, 35] was 1.55 nM.

For MRSRWSRKML, the Kd [7, 37] was 175 nM.

For IVQYENLKY, the Kd [19, 37] was 191 nM and the Kd [4, 37] was 5.95 µM.

In the case of TEAEKQLQQ, the IC50 [3, 31] is reported as at least 338 µM.

For KLSNAKWLA, the Kd [13, 39] was 1630 nM, the Kd [1, 39] was 1630 nM and the Kd [10, 39] was 413 nM.

In the case of TGILGSLGL, the IC50 [3, 26] is reported as at least 92.7 µM.

For TTPENITTA, the IC50 [3, 26] was 19 µM.

KIGDFGLATV showed an IC50 ([3]; source organism: Homo sapiens) of 0.04 µM.

EMVEYLENQL was tested, and the Kd [22] was 0.212 µM, the Kd [23] was 209 nM and the Kd [24] was 420 nM.

Work on MFGGVSWMV yielded a Kd [20, 28] of 8.79 µM.

TLVPQEHYV gave a Kd ([18]; source organism: SARS-CoV1) of at least 43.2 µM, a Kd ([10]; source organism: SARS-CoV1) of 119 nM and a Kd ([6]; source organism: SARS-CoV1) of 79.5 nM.

GIKGLDERFV showed a Kd [22] of 6.19 µM, a Kd [23] of 844 nM and a Kd [24] of 940 nM.

With NVLDEKYNT the IC50 [3, 36] was at least 319 µM.

GVVTKSGDY gave a Kd [19, 28] of 980 nM and a Kd [21, 28] of 2420 nM.
